As usually defined, the Kd is the equilibrium constant for the complex coming apart. The low end stands for higher affinity, the high end for lower affinity.

Test [1] deals with T1, human C5a (human, UniProt P01031 678-751).
T1 sequence: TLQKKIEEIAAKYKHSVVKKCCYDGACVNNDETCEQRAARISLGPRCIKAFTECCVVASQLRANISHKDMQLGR
The test is described as follows: cell-based or functional assay.

The target of test [2] is T1, human C5a. The test is described as follows: method not stated (Table 3, column Affinity).
Test [3] deals with T1, human C5a. The test is described as follows: cell-based or functional assay. This is another data set of the same source.

B1: INab308 (antibody, V domains shown)
VH: QVQLQQSGPQLVRPGTSVKISCKASGYSFTTFWMDWVKQRPGQGLEWIGRIDPSDSESRLDQRFKDRATLTVDKSSSTVYMQLSSPTSEDSAVYYCARGNDGYYGFAYWGQGTLVTVSS
VL: DIVLTQSPASLAVSLGQRATISCKASQSVDYDGDSYMKWYQQKPGQPPKLLIYAASNLQSGIPARFSGSGSGTDFTLNIHPVEEEDAATYYCQQSNEDPYTFGGGTKLEIK
notes: Mouse monoclonal antibody from a hybridoma (BALB/c mice immunized with recombinant human C5a), purified from ascites on protein A; said to be bivalent
As for B1, the “Blocking activity (inhibition of C5a-induced lysozyme release from human whole blood cells) at a ratio of Ab to C5a of ½:1” value in the test with human C5a [1] is at least 90%. For the same molecule, the affinity with human C5a [2], expressed as Kd, was 500 pM. Further, the “blocking activity to C5a bioactivity (C5a-induced lysozyme release assay), molar ratio of antibody to C5a 1:2” value in the test with human C5a [3] was found to be 94%.

B2: INab708 (antibody, V domains shown)
VH: VQLLESGAELMKPGASVKISCKATGNTFSGYWIEWVKQRPGHGLEWIGEILPGSGSTNYNEKFKGKATLTADTSSNTAYMQLSSLTSEDSAVYYCTRRGLYDGSSYFAYWGQGTLVTVSA
VL: DIVLTQSPASLAVSLGQRATISCKASQSVDYDGDSYMNWYQQKPGQPPKLLIYAASNLGSGIPARFSGSGSGTDFTLNIHPVEEEVAATYYCQQNNEDPLTFGAGTLLELK
notes: as for B1
With B2, in the test with human C5a [1], the “Blocking activity (inhibition of C5a-induced lysozyme release from human whole blood cells) at a ratio of Ab to C5a of ½:1” value is at least 90%. Besides, the Kd with human C5a [2] was 510 pM. In the test with human C5a [3], the “blocking activity to C5a bioactivity (C5a-induced lysozyme release assay), molar ratio of antibody to C5a 1:2” value is 100%.

(Values after US20150266949A1 (INFLARX, published 2015).)
